The values that follow come from a protein production outcome set (Wang et al. 2014).

The nature of this series: label from the status in PepcDB records.

As for “MERLKIQVLVDNNTYIDRYFVGEPAVSYYIEIDGNRILFDSGYSDVFISNAEKLNIDLGNLTHVVFSHGHNDHTRGIQFLENRYDLSTVELVSHPNCFIPRKHGEKSIGAPFSAEEIKNIFMYNPKDKPFNLSKNCVFLGEIPSINDFEKRAKIGKCKIGDLWEDDYVLDDSAIVCKTDKGIFIVTGCSHSGICNIVEYAKKVCGDDRVIGILGGFHLFELNNRLDSTIQYLDKEEIRMLYPCHCVSFKVKAKMNEILNINEVGVGLTISILEHHHHHH”, the protein production entry was “not failed”.

“MERLNSKLFVENCYIMKENERLRKKAELLNQENQQLLFQLKQKLSKTKNSNNGSNNDNKSSSASGQS”: the protein production entry was “failed”.

“MERLSPVFATSKSSNMEVEHWMTSLKEVEKVLDSVEPKLTSSGTKWRVVAQHIKDICSDLNQIFNKEDPRYEVVQAGASAAHDFDVRYLDIHKVRTPHEPLEMRHSKGRKHGREIARLLEKIQKYRQEIEEIKKEYKETDKYRERYDHYKVKLDNLEKKNKDQERIERNQQKFKDAEAAYSSVCADLIQKMETVWKKHVSIFAEAASAVWSTQLQYAKALEAAANPIVPYLQQEEQEEEEEEEAASGTQGRVAEKAYHTNEEKVENSFQKNSAIPPSFRTASEQLTEQSKNINNAKNTSETSPAEDIEA”: the protein production result is on record as “not failed”.

As for “MERPVPVRVEPRQLALDLPHAESLSREDFLEGSANTAALSLIESWPDWPNRIMMLVGPEGSGKSHLAAIWAELAGARSTAAQALNAAAVPGALATGAVVVEDLVPGSFDERALFHLMNMAREDEAYVLFTGRVEPSALSIELRDLKSRLRTVPVVSLLPPDDALFRALIVKFCADRQMCIDAALVGYLANRIDRSFVAARQVVEKLDTTALRLGRPVTRALASEVLRADLEHHHHHH”, the protein production result is listed as “failed”.

Take “MERQQQQQQQLRNLRDFLLVYNRMTELCFQRCVPSLHHRALDAEEEACLHSCAGKLIHSNHRLMAAYVQLMPALVQRRIADYEAASAVPSVAAEQPGVSPSGS”: the protein production result is listed as “not failed”.

Turning to “MERRGELHRVRVPVSAELEIAEIADRVVKAGGPALLFERVVGKDFPVAIGLFGTRARTAFALGVEDLDELARKVEALLALEPGKGGLSALLGLLPKLPLLRGFFPRRVRRAPVQEVVWRGEEVDLRRLPVLKCWPLDGGPFLTLPLVITKDPETGELNLGMYRMQVLDPRSTAMHWQWHKVGRRHLEKAKRLGRRLEVAVALGGDPVLTYAATAPLPPLPGVSEFHLAGFLRGAPIELARGVTVDLPVPAEAEFVLEGYIDPEEPLVEEGPFGDHTGFYTPVDLYPRFHVTAVTHRKGAIYPATLVGVPPMEDAYLIEATERLFLPALRLVLPEVVDYHMPPEGVAHNWVNVSLRKAYPGQAYKVAYGMLGLGQMMFAKVIVAVDADVPVKPGFAALLEALKHALPGRDTLLLRGPVDVLDHSSRAFAFGGKLVIDGTRKLPEEGGEAPFVPKAHPGLPEDPEVLDQRQWPGLWGAVLAKRRPHQAWEVAERLLRAPQSAGIRLLLLADEDTALSPEELLWYVLNNVDPERDARVMPGVEGPVLVLDGTRKLPEEGFPRVWPERIRMDPKVKALVEARWAEYGLGWTTVGE”, the protein production entry was “failed”.

As for “MERRLGVRAWVKENRGSFQPPVCNKLMHQEQLKVMFIGGPNTRKDYHIEEGEEVFYQLEGDMVLRVLEQGKHRDVVIRQGEIFLLPARVPHSPQRFANTVGLVVERRRLETELDGLRYYVGDTMDVLFEKWFYCKDLGTQLAPIIQEFFSSEQYRTGKPIPDQLLKEPPFPLSTRSIMEPMSLDAWLDSHHRELQAGTPLSLFGDTYETQVIAYGQGSSEGLRQNVDVWLWQLEGSSVVTMGGRRLSLAPDDSLLVLAGTSYAWERTQGSVALSVTQDPACKKPLG”, the protein production entry is “failed”.

Regarding “MERSALVTGGASGLGRAAALALKARGYRVVVLDLRREGEDLIYVEGDVTREEDVRRAVARAQEEAPLFAVVSAAGVGLAEKILGKEGPHGLESFRRVLEVNLLGTFNVLRLAAWAMRENPPDAEGQRGVIVNTASVAAFEGQIGQAAYAASKGGVVALTLPAARELAGWGIRVVTVAPGLFDTPLLQGLPEKAKASLAAQVPFPPRLGRPEEYAALVLHILENPMLNGEVVRLDGALRMAPR”, the protein production result is listed as “not failed”.

Consider “MESEGEAQMFADCDQKTVKQTAAKPMSSKKKQDFQALASDRQLAIVFSSMIQVSEAFDYGIGNPEYFVRISMTEEEADIAKENLESIKLENKSLKKQNSEAVALLQKTRNQDMSRIEIQQLTENRAGFFETADSMIKLINQVTPKNAKKTRQQLDQLKKQYTQYSAESIKIMNSIVKKQKADKASFERHLEALLQKQPGQQVRSELYLEHHHHHH”, for which the protein production entry is recorded as “not failed”.

Take “MESFSSKSLALQAEKKLLSKMAGRSVAHLFIDETSSEVLDELYRVSKEYTHSRPQAQRVIKDLIKVAIKVAVLHRNGSFGPSELALATRFRQKLRQGAMTALSFGEVDFTFEAAVLAGLLTECRDVLLELVEHHLTPKSHGRIRHVFDHFSDPGLLTALYGPDFTQHLGKICDGLRKLLDEGKL”: the protein production entry is “failed”.

“MESIEQQLTELRTTLRHHEYLYHVMDAPEIPDAEYDRLMRELRELETKHPELITPDSPTQRVGAAPLAAFSQIRHEVPMLSLDNVFDEESFLAFNKRVQDRLKNNEKVTWCCELKLDGLAVSILYENGVLVSAATRGDGTTGEDITSNVRTIRAIPLKLHGENIPARLEVRGEVFLPQAGFEKINEDARRTGGKVFANPRNAAAGSLRQLDPRITAKRPLTFFCYGVGVLEGGELPDTHLGRLLQFKKWGLPVSDRVTLCESAEEVLAFYHKVEEDRPTLGFDIDGVVIKVNSLAQQEQLGFVARAPRWAVAFKFPAQEQMTFVRDVEFQVGRTGAITPVARLEPVHVAGVLVSNATLHNADEIERLGLRIGDKVVIRRAGDVIPQVVNVVLSERPEDTREVVFPTHCPVCGSDVERVEGEAVARCTGGLICGAQRKESLKHFVSRRAMDVDGMGDKIIDQLVEKEYVHTPADLFKLTAGKLTGLERMGPKSAQNVVNALEKAKETTFARFLYALGIREVGEATAAGLAAYFGTLEALEAASIEELQKVPDVGIVVASHVHNFFAEESNRNVISELLAEGVHWPAPIVINAEEIDSPFAGKTVVLTGSLSQMSRDDAKARLVELGAKVAGSVSKKTDLVIAGEAAGSKLAKAQELGIEVIDEAEMLRLLGS”: the protein production result is “not failed”.

With “MESITLDIELLQLPETSPMSMKSNQDFVKKLFDQWLALPETNRLVTSLVNDAKAGVALNVMCGGGSSGTNSGSNSPLASMFPARNGPPLSPRNSTGSPRIARQRTGLSNLSSPLKVVSDHVKELIPQFYFEDGRPPPNDLKEQCIAKINSLFYGHEDGLQLQEFKLVTTEICKVPSFFSTSIFKKVDTNNTGFVKREDFIDYWVKGNMLTKEITSQVFTILKQPDHNYLVQDDFKPVLQELLATHPGLEFLQGTPEFQDRYAETVIYRIYYYINRSGNGHLTLRELKRGNLVDAMQHADEEEDINKVLRYFSYEHFYVIYCKFWELDTDHDFLIDKENLIRYSNHALTYRIVDRIFSQVPRKFTSKTEGKMGYEDFVYFILAEEDKSSEPSLEYWFKCIDLDANGVLTRNELQFFYEEQLHRMECMAQEAVLFEDILCQLFDMVKPEDEGFICLNDLKGSKLSGNVFNILFNLNKFMAFETRDPFLIRQERANPTWTEWDRFAHREYIRLSMEEDVEDASNGSAEAWDDSLEVPF”, the protein production result is “failed”.

Consider “MESLIGLVNRIQRACTVLGDYGGGTGSNAFNSLWEALPTVAVVGGQSSGKSSVLESIVGRDFLPRGSGIVTRRPLVLQLHKTDDGTEEYAEFLHLPKKQFTDFALVRREIQDETDRITGKNKQISPVPIHLSIYSPNVVNLTLIDLPGLTKVAVEGQPETIAEDIESMVRTYVDKPNCIILAISPANQDIATSDAIKLAKDVDPTGERTFGVLTKLDLMDKGTNALEVLEGRSYRLQHPWVGIVNRSQADINKNVDMMLARRKEREYFDTSPDYGHLASKMGSEYLAKLLSKHLESVIRTRIPSILSLINKSIEELERELDRMGRPVAVDAGAQLYTILEMCRAFDKIFKEHLDGGRPGGDRIYGVFDNQLPAALKKLPFDRHLSLQSVKKIVSEADGYQPHLIAPEQGYRRLIEGALGYFRGPAEASVDAVHYVLKELVRKSISETEELKRFPSLQVELAAAANSSLEKFREESKKSVIRLVDMESAYLTAEFFRKLPQEIERPVTNSKNQTASPSSATLDQYGDGHFRRIASNVSAYVNMVSDTLRNTIPKACVYCQVRQAKLALLNYFYSQISKREGKQLGQLLDEDPALMDRRLECAKRLELYKKARDEIDAVAWVR”, for which the protein production result is “failed”.

“MESLLRADQTLIPGAMCSRRVWTHSELALPSVSVTELDLVRGLLQALQGLSSPFLFWDQTGQTFRAKSHIRVSHLSHSSLHVLLAGFLYPATCLKLVESIVAAINTSLRSPPTLMAFSDSVSAWLEANIALKEEVMIDNSDITVTPTLLGLTSAEYLLQVVHGAIPHTFFDSNSTISAAEIAVHVLDYLYKKLDEVCLVQGGEVEGFHMLLQMFAGSLLPYIEGLDSWLFEGTLDDPCEELFFTANQSVSVDDAEFWEKSYQLMKVPNSKSNVTSLNEKKVMSGHDANSSLASDKDKEQNTRVLCPLFIKDICKSIVSAGKSLQLMQHIPSTSSENSGKTQFHGRNGYGKSSVGSLLTKMSSCSSTADLSLSEVFCLTLAGLIGHGDHVSRYLWKDEADEWEISPTLASYISGELVNDMDNKDLPVLTCSERMWYKLLVGAVQEKRAMEAKSELQSACYATGVKDGNSGLTAQKALQGLFCNENLVVSVSKMDLERNRNAWNVLNLSQNYCLPSLNDESLLSAVFEESGMADAGLSGTNYKFGFQFGRSEYISSQDDTNLLETLFPFPTLLPSFQAEPMDTRLPVVIMQECFTIYIRRQVDYIGKVILSKLMNDWKLMHELAVLRAIYLLGSGDLLQHFLTVIFDRLGKGESSNDDFELNIILQESIRNSADAMLLSSPDSLVVSISREDRDKDDKGDIIPLSSTRKSRVNSFGIDCLESLKFTYKVPWPLELIANSEAIKKYNQVKRAKYVLDKARRWMWKGKGSATKIRKHHWLLEQKLLNFVDAFHQYVMDRVYHTAWRELCEAMVKAGSLDEVIYVHETYLLSIQRQCFVVQEKLWAIIASRINMILGLALEFYSIQQTLSSGGAVSAIKARCEMEIDRIEKQFEDCIAFLLRVLSSKLNVGHFPHLADLVTRINYNYHYMSDTGSLMTTSGAETNSSRPWTAKSDV”: the protein production result is “failed”.

In the case of “MESPHAADPEGIDPQVVELATTIFALARAGDTASLDAYIRAGVPANLTNDQGDTLVMLAAYYGHADTVECLCRHGADVNRLNDRGQSPLAGAVFKDEDAVVKTLLAHGADPTLGQPSAIDTARMFGKEHYLELFDNA”, the protein production entry was “failed”.

With “MESPTQTSEHIESMTEFLVKHYPDQLREISLSSDPKLHYPLFIEYAELVDDNPSLARQVFSDPEHYLRQFDDSAILAHKIALEHMKKFEEKIGIEKRFIHVRINTSGSPLERSPETFPSIGRVRVKHRGILMMLKGTVIRSGAVKMYEGEKMYRCRKCKHMFPIFPELESINSIVKPPFCPSQRSKACEGTNFDPVDDTVTRHDYQEIKIQENTQVLGVGVIPRSILVVLKDDLVDNVKAGDDVVVSGILTSKWSHDLKDVRCDLEPMLIANHVRRTNELKSEIDISDDLIEKFKNFWSHFRDTPLKGRNAILRGICPQVFGLFTVKLAVALTLIGGVQHVDASGTKVRGESHLLLIGDPGTGKSQFLKFAAKLSNRAVITTGLGSTSAGLTVTAVKDGGEWMLEAGALVLADGGLCCIDEFDSMREHDRATIHEAMEQQSISVAKAGLVTTLSTKTIVFGATNPKGQYDPDQYTKNPEWDAVVSSHILAEVQIEQDREVDDLTTIWPLPMLQRYIQFVKKNFRPVLSKEAEEIISSYYRLQRRSSTHNAARTTVRMLESLIRLAQGTSSVIVFINQNTPKTGTKERILMVLWCHAAHARLMFRNEVTRLDAITAILCIESSMTISAIVDSMGNALHSNFSEEPDQECILFRH”, the protein production entry is “failed”.
